Measurements: the nanobody polyreactivity screen of Harvey et al. (2022)

Experiment: yeast display, Sf9 membrane polyspecificity reagent, FACS + sequencing; frameworks hold sequencing errors
Procedure, shortened: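 In a synthetic yeast display library (Saccharomyces cerevisiae BJ5465), nanobody expression was induced with galactose for 36–48 hours. FACS gates were set low and high (top ~1%) using anti-HA fluorescence for expression and streptavidin fluorescence for binding of the Sf9 membrane reagent. Each polyreactivity label is drawn from the gate of origin.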

Sequence	polyreactivity (PSR sort gate)
QVQLVESGGGLVQAGGSLSLSCAASGYTFYKYAMGSYIQAPGKERELVAAISSSGGSTYYADSVKGRFTISRDNAKNTVYLQMNSLKPEDTAVNYCAAYVYSNDYDYWGQGTQVTVSS	high polyreactivity
QVQLVESGGGLVQAGGSLSLSCAATGLTFQQYAMGWYRQAPWKERELVAAITVSGGHTYYADSVKGRFTISRDNAKNTVYLQMNTLKPEDTAVYYCAAPPGYTGRYDYYYCGQGTQVTVSS	high polyreactivity
QVQLVESGGGLVQAGGSLSLSCSASGRTLYFYAMGWYRQAPGKERELVAAIRWRGGSTYYADSVKGRFTISRDNAKNTVYLQMNSLKPEDTAVYYCAADVPSGYDYWGQGTQVTVSS	high polyreactivity
QVQLVESGGGLVQAGGSLSLSSAASGSTFHRNTMGWYRQAPGKERELVAGISLRGVRTYYADSVKGRFTISRDNAKNSVYLQMNSLKPEDTAVYYCAGGGPYTRNFKLGYWGQGTQVSVSS	high polyreactivity
QVQLVESGGGLVQAGGSLSLSWAASGSTFFNNAMGWYRQAPGKERELVAGISYGCGRTYYADSVKGRFTISRDNAKNTVFLQMNSLKPEDTAVYYCNTVTSPAPYYSYDRYYWGQGTQVTVSS	high polyreactivity
QVQLVESGGGLVQAGGSLTLICAASGRTLYLNAMGWYRQAPRKERELVAISSGGSTYYADSVKGRFTISRDNAKNTVYLQMNSLKPEVTAVYYCNADEHYHFCYVFWYAYDYWGQGTQVTVSS	low polyreactivity
QVQLVESGGGLVQAGGSNRLSCADSGLIFGFNTMGSYRQAPAKEREMVAVISSSGGSTYYADSVKARFTISRDNAKKTVYFQMNSLKPEDTAVYYSAARAYPVRYRRRDYWGQGTQVTVSS	high polyreactivity
QVQLVESGGGLVQAGGSQRLSCAASGRIFPGNAMGWYRQAPGKERELVAAIRWSGGSTYYADSVKGRFTISRDNAKNTVYLQMNSLKPEDTAVFYCAKDRGSVFKRKYYYWGQGTQVTVSS	low polyreactivity
QVQLVESGGGLVQAGGSRRLCCAASGITLPVYGMGWYIQAPGKERELVAVIDIVGITNYADSVKGRFPISRDNAKNTVYLMMNSLKPEDTAVYYCAKRYVYIADGGEYYYLGQGTQVTVSS	low polyreactivity
QVQLVESGGGLVQAGGSRRLRCAASGRTFWTYAMGWYRQAPGKEREFVAAISYSGSSTYADSVKGRFTISRDNATNTVYLQMKSLKPEDTAVYFCAAYLYTAVVAYGYVSWGQGTQVTVSS	low polyreactivity
QVQLVESGGGLVQAGGSRRLRCAASGSIISSYALGWYRQAPGQEMEFVAAISTGGRTYYADSVKGRFTISRDNGKNTVYLQMNSLKPEDTAVYYCAADGPLPHKVGTHTLDYWGQGTQVTVSS	low polyreactivity
QVQLVESGGGLVQAGGSRRLSCAASGFTFLAYALGWYRQAPGKERELVAAISWDGGSTYYADSVKGRFTISRDNAKNTVYLQMNSLKPEDTAVYYCNRRSRRQGGYWGQGTQVTVSS	high polyreactivity
QVQLVESGGGLVQAGGSRRLSCAASGFTFQDYAMGWYRQAPGKERELVAAISKSGGRTYYADSVKRRFTISRDNAKKTVYLEMNSLKPEETAVYYCAALPLYSQDYDYWGPGTQVTVSS	high polyreactivity
QVQLVESGGGLVQAGGSRRLSCAASGGTFVSYAMGWYIQAPGKERELVADITYSGGSTYYADSVKGRFTISRDNAKNTVYLQMNSLKPEDTAVYYCAADLGRNLLHTYYYWGQGTQVTVSS	low polyreactivity
QVQLVESGGGLVQAGGSRRLSCAASGISFGSYVMGWYRQAPGKERELVAAISWSGGSTNYADSVKGRFTISRDNSKNTVYLQMNILKPEDTAVFYCAAEYDVYGYYYWGQGTQVTVSS	high polyreactivity
QVQLVESGGGLVQAGGSRRLSCAASGRTFIVYAMGWYRQAPGKERELVARISSGSRTSYADSVKGRFTISRDNAKNTVYLQMNSLKPEDTAVYYCAKSRVIKYEFDYWGQGTQVTVSS	low polyreactivity

Sequence	polyreactivity (PSR sort gate)
QVQLVESGGGLVQAGGSRRLSCAASGRTFQYYAMGCYRQAPGKERELVASITYNGDITYYADSVKGRFTISRDNAKNTVYLQMNSLKPEDTAVYYCAATKFSDFGYQAVIGYGYWGQGTQVTVSS	low polyreactivity
QVQLVESGGGLVQAGGSRRLSCAASGRTIGVYAMGWYRQAPGKERELVAAFSWSGGTTYYADSVKGRFTISCDNAMNTVYLQLNSLKPEDNAVYYCAADSFTEVDYWGQGTQVTVSS	low polyreactivity
QVQLVESGGGLVQAGGSRRLSCAASGSIFTSNAMGWYRQAPGNERDLVAVITGSTGRTHYADSVKGRFTISRDNAMNTVYLQMNSLKPEDTAVYYFSAGLTFVTNFDYWGQGTHVTVSS	low polyreactivity
QVQLVESGGGLVQAGGSRRLSCAASGSIFVSNAMGWDRQAPGKERELVAAISGGCSTYYADSVKGRFTISRDNAKNTVYLQMNSLKPEDTAVYYCNALFDGYAQDLDYDYWGQGTQVTVSS	low polyreactivity
QVQLVESGGGLVQAGGSRRLSCAASGSTFAYYAMGWYRQAPGKERELVAAISWRGGSTYYADSVKGRFTISRDNAKNTVYLQMNSLKPEDTAVYYCATLSAWKASSYDYWGQGTQVTVSS	high polyreactivity
QVQLVESGGGLVQAGGSRRLSCAASGSTFGWYVMGWYRPAPGKDREFVAAIDNSGGDTYYADSLKGRFTISRDTAKNTVYLQMNSLKPEDTAVYYCDDEAYTRASFENDYWGQGTQVTVSS	low polyreactivity
QVQLVESGGGLVQAGGSRRLSCAASGSTFQYNAMGWYRQAPGKDREWVAAITGSGGSTYYADSVKGRFTISRDNSKNTVYLQMNSLKPEDTAVYYCAKRVRSFNWVLARHKYDYWGQGTQVTVSS	low polyreactivity
QVQLVESGGGLVQAGGSVRLSCAASGLIFGGYTMGWYRQAPGKDRELVAAIDSADSTYYADSVKGRFTISRDNAKNTVYLQMNSLKPEDTAVYYCATYWYYSGPAYSLRETGGVNYWGQGTQVTVSS	low polyreactivity
QVQLVESGGGLVQAGGSVRLSCAASGSTIPPKVMGWYREAPGKEREWVAAISWGGSSTYYADSVKGRFPISRDHAKNTVFVQKNCLQREETAVYYCNAEYRSPVYWWYYEYDYWGQGTQVTVSA	high polyreactivity
QVQLVESGGGLVQAGGSVSLSCAASGTFSPYAMGWYRQAPGKERELVADITSNTGRTYADSVKGRFTISRDNAKNTVYLKMNSLKPEDTSVYYCNTYGSGTHSSGYDYWGQGTQVTVSS	low polyreactivity
QVQLVESGGGLVQAGGTLGLSCAASGFIITQYAMGRYRQAPGKERELVAAISGNGGRTYYADSVKGRFTISRDNAKNTVYLQLNSLKPEDTAVYYCAVTRPGRRYPFGYDYWGQGTQVTVSS	high polyreactivity
QVQLVESGGGLVQAGGTLPLSCAASGFTVRSYAMGWYRQAPGEEREIVAAISRLGDSTYFADSVKGRFTISRDNAKNTVYLQMYSLITEDTAVYYCAKYGIASRFSRFDSWGQGTQVTVSS	high polyreactivity
QVQLVESGGGLVQAGGTLRLICADSGFTFPVYAMGWSRQAPGKERQLVAAITRSGGRTYYADSVKGRFRISRDNAKNTVYLQMNSLKPEDTAFYYCNADYPYGPGSRVRYDYWGQGTQVTVSS	high polyreactivity
QVQLVESGGGLVQAGGTLRLRCAASGSTFFPYAIGWYRPAPGKEWELVAAITSGGRTHYADSVKGRFTISRDNAKNTVYLQMMSLIPEDSAVYYCAAVVPRHLLTYRMDYWGQGNQVTVSS	high polyreactivity
QVQLVESGGGLVQAGGTLRLRCAPSGSIFWGNAIGWYRQAPGKERELVAAIDWSGGSTYYADSVKGRFTISRDNAKNTVYLLMYSLKPEDTAVYFCAASGRYDYDYWGQGTQVTVSS	low polyreactivity
QVQLVESGGGLVQAGGTLRLSCAASGFIFCTYAMGWSRQAPGKERELVAAISSRDVSTYYADSVKGRFTISRDNAKNTVYLQMNSLKPEDTAVYYCAAEDPYYYPYEYWGQGTQVTVSS	high polyreactivity
